Assay results: the nanobody polyreactivity screen of Harvey et al. (2022)

Assay: yeast display, Sf9 membrane polyspecificity reagent, FACS + sequencing; frameworks hold sequencing errors
Procedure, shortened: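 Nanobodies came from a synthetic yeast display library in Saccharomyces cerevisiae BJ5465, induced with galactose for 36–48 hours and stained for 1 hour at 4 °C with 10% biotinylated, detergent-solubilized Sf9 membrane reagent. Cells were enriched on streptavidin microbeads and then FACS-sorted, with low and high (top ~1%) gates set on anti-HA fluorescence for expression and streptavidin fluorescence for reagent binding. Each polyreactivity label reflects the gate a clone came from. Genes were amplified by colony PCR, sequenced by MiSeq 2 × 250 and filtered by CDR length.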

| Sequence | polyreactivity (PSR sort gate) |
| --- | --- |
| QVQLVESGGGLVQAGGSLRLSCAASGITFYGYAMAWYRQAPGKERELVATITSGGSTYYADSVKGRFTISRDNAKNTVYLQMNSLKPEDTAVYYCAASRWYRRTRYGYWGQGTQVTVSS | high polyreactivity |
| QLQLVESVGGLVHAGGSLRLSCAASGSTFVLYAMGWYRQAPGKERELVATITTSGARTHYADSVKGRFTISRDNAKNTVYLQMNRLKPEDTAVYNCAAESYWTGDDYWGQGTQVTVSS | low polyreactivity |
| QVQLVESGGGLVQAGGSLRLSCAASGRTFSYNAMGWYRQAPGKERELVAAITGRGGSTYYADSVKGRFTISRDNAKHTVYLQMNSLKPEDTAVYYCNAPPGTFQWQGHSDYWGQGTQVTVSS | low polyreactivity |
| QVQIVESGGGLVQAGGSLRLSCASSGSTMPAYTMGWYRQAPGKERELVADISRRGGSTYYADSVKGRFTISRDNAKNNVYLHMNSLKPEDTPVYYCATTAKKSYDYWGQGTHVTVSS | high polyreactivity |
| QVQLVESGGGLVQAGGSLRLSCAASGRTFGRYAMGWYRQAHGKERELVAAISWSGGSTYYADSVKGRFTISRDNAKNTVYLQMNNLKPEDTAVYYCAAVTTDGVYAFDYWGQGTQVTVSS | low polyreactivity |
| QVQLVESGGGLVQAGGSLRLSCAASGSIFAKYYARGWYRQAPVKERELVAAITSGGITNYADSVKGRFTISRDNAKNSVYLQMNSLKPEDTAVYYCAARKWLSAFDYWGQGTQVTVSS | low polyreactivity |
| QVQLEESGGGLDQAGVSLRLSCAASGRTFPSNTMGWYRQAPGKERELVAAISWRGGSTYYADSVKGRFTITRDNAKKTVYLQMNSLKPEDTAVYYCNTLTKAYRSKSYYEWGHGTQVTVSS | high polyreactivity |
| QVQLVESGGGIVQAGGSLRLSCAASGRIFRRYAMVWSRQAPGKQRELVAAISSGGGSTYYADSVKGRFTISRDNAKNTVYLQMNSLKPEDTAVFYCDAASSPRYDYWGQGTQVTVSS | high polyreactivity |
| QVQLVESGGGLVQAGGSLRLSCDASGFIFYGYVMGWYRQAPGKERELVAAITIGGSTNYADSVKGRFTISRDNAKNTVYLQRNSLKPEDTAVYYCAADQRSVTVGMDSWGQGTQVTVSS | low polyreactivity |
| HVQLVESGGGLVQAGGSLRLSCAASGFTFGWNDMGWYRQAPGKERELVAAITWSGGSTYYADSVKGRFTISRDNAKNTVYLQMNSLKPEDTAVYYCAAVVSDYVWRYEYWGQGTQVTVSS | low polyreactivity |
| QVLLVESGGGLVQAGGSLRLSGAASGRTFRRNAIGWYRQAPGKERELVAAISASGGSTYYADSVKGRFTISRDNAMNTVYLEMNSLKPEDTADYYCAAVSQTTYWGQGTQVTVSS | high polyreactivity |
| QVQLVESGGGLVQAGGSLRLSCAASGFTFSFYAMGWYRQAPGKERELVATISSGGSTTYADSVKGRFTISRDNAKNTVYLQMNSLKPEDTAVYYCAARGKYYRSQDPSGPRRYDYWGQGTQVTVSS | high polyreactivity |
| QVQLEESGGGLVQAGGSLRLSCASSGSTFATYAMGWDRQAPGKERELVAGISKRGGRTYYADSLKGRFTISRDNAKNTVYFQMNSLKPEDTAVYYCARYSPYYRVKDYDSWGQGTQVTVSS | high polyreactivity |
| QVQLVESGGGLVQAGGSLRLSCAASGIIFPYYTMGWYRQAPGKERELVARITNGGRTYYADSVKGRFTISRDNAKNTVYLQMNSLKPEDTGVYYCAADSRYDYEYWGQGTQVTVSS | high polyreactivity |
| QVQLVESGGALVQAGGSLSLSCAASGSTYSYYAMGWYRQAPGKETEVVAAINRSGGSTYYADSVKGRFTISRDNAKYTVYLQMNSLKPEDTAVYYCAALRSKTVSYDRYDYWGQGTQVTVSS | high polyreactivity |
| QVQLEESGGGLVQAGGSLRLSCAASGIIFWWYAMGWYRQAPGKERELVAAISGTGGSTYYADSVKGRFTISRDNAKNTVYLQINRLKPEDTAVYFCAARGKSSSFYDYDYWGQGTQVTVSS | low polyreactivity |
| QVQLVESGGGLVQAGGSLRLSCAASGSIFGYNAMGWYRQAPGKERELVAAISLSGSSTYYADSVKGRFTISRDNAKNTVYLQMNSLKPEDTAVYYCAALYQWRRVFYTSYGYWGQGTQVTGSS | high polyreactivity |
| QVQLVESVGGLVQAGGSLRLSCAATGSTFGVNDMGWYRQSPGKERQFVADITTSGGSTYYADSVKWRFTISRDIAKNTVYLQMNSLKPEDTAVYYCAADLWPFEHDDYWGQGTQVTVSS | low polyreactivity |
| QVQLVESGGGLVQAGGSLRLSCAASGRISTTNAMGWYRQAPGKERELVASITSGGGTNYADSVKGRFTISRDNAKNTVYLQMNCLKPEDTAVYYCAKRRSYFLHSYYSYGYWGQGTQVTVSS | high polyreactivity |
| QVHLVESGGGLVQAGGSLRLSCAASGRTFDHNTMGWYRQAPGKERELVAAISWSGGTTYYADSVKGRFTISRDNAKNTVYLQMNSLKPEDTAVYYCAADRSPGSYGYQYDYWGQGTQVTVSS | low polyreactivity |
| QVQLVESGGGLVPAGGSLRLSCASSGITFRVYVMGWYRQAPGKESELVAPIDDNGGSTYYADSVKGRFTISRDNAKNTVYLQMNSLKPEDTAVYYCAKAIVYSLLEYGWVDYDDWGQGTQLTVSS | low polyreactivity |
| QVQLVESGGGLVQAGGSLRLSCAASGSNFRSNAMGWYRQAPGKERELVAAISRRGGSTYYADSVKGRFRISRDIAKNTVYLQMNSLKPEDTAVYYCAAPTIVSGHDSWGQGTQVTVSS | high polyreactivity |
| QVEHVESGGGLVQAGGILRLSCAASGSTFYGYAMGWYRQARGKERELVAAITSSGGSTYYADSVKGRFTISRDNAKNSVYLQMNSLKPEDTADYYCNAKRAPWGTLYNYWGQGSQVTVSS | high polyreactivity |
| QVQMQESGGGLVQAGGSLRLSCAASCTISQEDWMGWYRQAPGKEREFVAAIGLGSNTNYADSLKGRFTISRDNAKNTVYLQMNSLKPEDTAVYYCAVSVWQYSDHVFRGQGTQVTVSS | low polyreactivity |
| QVQLVESGGGLVQAGGSLRLSCASSGFTFARYAMGWYRPAPGKEREFVAAIDKSGGSTYYADSVTGRFTISRDNAKNTVYLQMNSLKPEDTAVYYCAAGFGRVFSSIYGYWGQGTQVTVSS | high polyreactivity |
| QVQLVESGGGLVQAGGSLRLSCAASGSIFDFYAMGCYRQAPGKERELVAAISGSGGSTYYADSVKGRFTMSRDNAKNTVYLQMNSLKPEDTAVYYCSYYYWGQRTQVTVSS | low polyreactivity |
| QVQLVESAGGLVQAGGSLRITCAASASTYSWYTMGWYREAPGKERELVASINYSGTNTYYADSVKGRFTISRDNAKNTVYLQMNSLNPEDTAVYYCAARPRTKLTAYNYCGQGTQVTVSS | high polyreactivity |
| QVQLVESGGGLVQAGGSLRLSCAASGFTFSQYAMGWYRQAPGKERELVAAINSRGGSTYYADSVKGRFTISRDNAKNTVYLQMNSLKPEDTAVYYCNAVISGYPYEYDYWGQGTQVTVSS | high polyreactivity |
| QVQLVESGGGLVQAGGSLRLSCAASGIIFVAYARGWYRQAPGKERELVAAITWGGGRTYYADSVKGRFTISRDNAKNTVYLQMNSLKPEDTAVYYCAAVVWYDPRATYVYWGQGTQVTVSS | low polyreactivity |
| QVQLVESGGGLVQEGGSLRLSCAASGRIIEYNTMGLNRPATGKERELVAAITGGTGSTYYADSVKGRFTISRDNAKNTVYLQMNSLIPVDTSVYYCNADGMILYDYWGQGTQVTVSS | low polyreactivity |
